Experimental data taken from the supplement of paper PMC12042874.
± gives the uncertainty stated by the source.

Experiment: amyloid nucleation score (Sup35N fusion, yeast selection) (log enrichment); library NNK2; higher = more nucleation; inactive = no reads after selection
How it was run: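 Peptides of 20 random codons, each fused to Sup35N, were expressed in psi-negative yeast. Cells were induced with 100 μM copper sulfate for 24 hours and grown 7 days at 30°C on medium lacking adenine and uracil, and plasmid inserts before and after selection were Illumina-sequenced. Nucleation scores are DiMSum log enrichments of output over input reads, centred on the mode score of non-aggregating sequences, and sequences under 100 input reads were excluded.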

Substance	amyloid nucleation score
INGVPNGYMATLGTTCVKKF	-1.11 ± 0.4
INMTLELDSVRRNLLYAGGG	-0.142 ± 0.55
INRCMLIPTRFVVAYSWKCV	-1.03 ± 0.78
INVHSSSG	0.344 ± 0.36
IPITSGIRRNCSSVRKDLGC	0.123 ± 0.39
IPRIDDSDLFRTLDF	-0.52 ± 1.1
IPTTQLAHCGQVACPARVVP	1.23 ± 0.28
IPYNLIASVMLFKDLNWFAK	6.491 ± 0.05
IQASSLMVAKERFWGDLWWL	4.34 ± 0.1
IQDWHVES	-0.075 ± 0.46
IQLMEFWLSGGLTVIMGILR	-0.971 ± 0.61
IQPQSSVVERGQMNMVGPTP	1.49 ± 0.12
IRAGAWLEICRSAVVSGPSF	-0.073 ± 0.33
IRCGREGLRR	inactive
IRCLFVT	inactive
IREYHMFDGHMRDRCFGQVK	-0.048 ± 0.65
IRFKVMGFMFFVSW	0.094 ± 0.65
IRFQCRSLRFTAIGGQVSWI	3.48 ± 0.095
IRFRVLVPNLGKASDRFQVP	-0.19 ± 0.53
IRFWLRRFICD	-0.528 ± 0.36
IRFYGS	inactive
IRGSKSFHLCEAK	0.213 ± 0.33
IRKCICSWCVECILRNPAKA	-0.434 ± 0.4
IRLTSAYLHSDVWGVMQWNK	4.823 ± 0.041
IRMLLYCMESELKGASVEAG	-0.037 ± 0.5

Substance	amyloid nucleation score
IRMVDTCRVLKLSGEPFSRD	-0.993 ± 0.78
IRNDKYW	-0.101 ± 0.31
IRSFEFHNAWMCVYIWSKLY	-0.271 ± 1
IRSLMSR	2.32 ± 0.061
IRSMACDIPGV	-0.255 ± 0.65
IRSNIGNSWNTLIFVYCCYT	6.415 ± 0.049
IRTDSTNMCF	-0.647 ± 1.1
IRVTCLLGL	-0.055 ± 0.2
IRVYFRDEYLKFG	-0.358 ± 0.19
IRWSVGSGKIRGSFLLLMDL	-0.432 ± 1.1
IRYNLGGDQLG	-0.805 ± 0.44
IRYWLNERMVSDRRTVTGGV	7.47 ± 0.077
IRYWSMLLEVG	5.683 ± 0.046
ISAWAWHQVTWRIPGALVVG	0.294 ± 1.1
ISCKSFENTTHPALIPRVKA	-0.331 ± 0.5
ISCNKIIDIKMWGWVCAIA	8.729 ± 0.035
ISDLCNASGWIRKDTSSRRL	-0.27 ± 0.23
ISESLSRWART	3.69 ± 0.12
ISFDLCIKRWQK	5.946 ± 0.054
ISGRLNRDGGSDKMSAEREG	1.25 ± 0.33
ISGWYVVSSVS	0.912 ± 0.22
ISHLRVLEQSLLAEWADNFP	2.08 ± 0.097
ISHMYCSFGSLVLFSGIRFR	-0.774 ± 0.53
ISHYAYQ	0.811 ± 0.57
ISLDWAPN	inactive

Substance	amyloid nucleation score
ISLISHVLANLSVIRDHANE	-0.68 ± 0.4
ISPISEQHMLSLTSYEP	1.74 ± 0.35
ISQRSNASCVN	0.966 ± 0.48
ISRILRKYNVIVRSSSVSRG	-1.06 ± 0.31
ISRYEGRRLKCDGITFGYSG	-0.031 ± 0.23
ISSSIEHNRCGVEINVICWS	7.312 ± 0.051
ISVFLVMQRCVYDSYAFQAE	-0.503 ± 0.63
ISYKAWMFRGRMNSVGISRY	-0.299 ± 0.63
ITKNHSVDDRCTMMYFYLCV	3.76 ± 0.093
ITSVKHCAS	1.05 ± 0.53
IVCDVLNWPYFVAMAF	0.25 ± 0.8
IVCTYFHSTPSCYRLASNWY	0.284 ± 1.1
IVDGVYEFKC	-0.779 ± 0.32
IVDSVR	0.388 ± 0.32
IVFYVEVVLMAECLADVKRV	5.56 ± 0.081
IVGSDGGNIFTRLGCSAYRE	-1.14 ± 0.35
IVIGRQCPTWFDVARYR	1.07 ± 0.34
IVLNVYMRKTKQV	0.078 ± 0.29
IVLSGWLSSPSYASWDFCMR	0.07 ± 0.77
IVMSCSMNPIEAYEVLCEFF	0.382 ± 0.8
IVNSNWGARRNKRAACQRES	-0.317 ± 0.79
IVSAKCYRIMVDFYYGYFRL	0.01 ± 0.65
IVSAKDILRLIYSVCGAGLG	-0.264 ± 0.48
IVSIT	-0.271 ± 0.24
IVSSSNFFKLMYCMFILRIS	0.247 ± 1

Substance	amyloid nucleation score
IVTAGWNLVFRKYADTRMVQ	-0.337 ± 1.1
IVVNNCSEVLEVGSDDAVKR	inactive
IWGLIAYLDSFNNFALDRRK	-1.03 ± 0.42
IYACGYGLFYEYHTCSMCEI	-0.977 ± 0.34
IYALFLICLLHISVGLLMYR	-0.179 ± 0.63
IYCIFRTSKLMNGVMVHSRQ	-0.454 ± 0.37
IYCLRAGTKHSSLLGAKEDK	0.594 ± 0.66
IYFWDTLTFLLSCLHAAGEN	-1.87 ± 0.64
IYLRESSVYILVFLRTFLVA	-0.542 ± 0.64
IYLYPSYWCCFNRL	9.605 ± 0.059
IYQIGDEQHDFLCPLKVFVN	-0.336 ± 0.76
IYRKSICYSFVWALFEVAEW	-0.398 ± 0.35
IYRLDHRACP	1.03 ± 0.38
IYTSSGL	-0.902 ± 0.54
IYWTNLSRLKTGANRLRDKK	0.177 ± 0.8
IYYGSRISPTWAGRLLCGER	-0.185 ± 0.44
KACWCLYQGLTLSAQVQLWP	1.26 ± 0.26
KAGLWYNCPAMYDGYLRLKA	1.98 ± 0.15
KAGTGVVSANK	0.644 ± 0.39
KALFLYYSSVRITHNKLHAR	inactive
KAMYFYSRTVRPMMGSEEGS	-0.072 ± 0.4
KASMCGMKVWKFFQYLIKMV	-1.1 ± 0.61
KAVCGCLLLGFVNFLYPVEV	-0.495 ± 0.21
KCDLMRWSHFQ	1.24 ± 0.48
KCGSTFPLDLLYMSY	-1.16 ± 0.49

Substance	amyloid nucleation score
KCLCAGFLF	-0.577 ± 0.38
KCLSRNPHSIDFMRNARYKD	-0.92 ± 0.33
KCNVMRQMRFMLPFTVIVVL	0.204 ± 0.31
KDAFT	-0.895 ± 0.49
KDCYNHSGRTGVVTDQKAQW	-0.118 ± 0.41
KDTMK	-0.001 ± 0.24
KERRSSVLVKNRVCSNGYF	inactive
KETTGWLRYIP	-0.56 ± 0.56
KFHHGFLGELPAPEYSSESA	0.25 ± 0.42
KFNCLGLWDEYHNSM	0.259 ± 0.43
KFTLCWRTRMAFMSPWLMRI	inactive
KFYVCCATCGCDKINELPVT	8.088 ± 0.06
KFYYVTGDATLNRDLWGSRA	-0.79 ± 0.34
KGCEIFLVLAMCDKCSGFL	3.69 ± 0.12
KGGLRISSLVTYM	0.274 ± 1.1
KGGWNKGEPMFFLVMCMYVN	4.8 ± 0.054
KGIAVSVVPYSPVNTGDSAV	0.632 ± 0.48
KGNHRRVKTSIYNFFKVSNC	0.445 ± 0.29
KHFAIW	-0.08 ± 1
KHVLGWNISFFYFTFAIG	inactive
KICCIQVLLKYMGQWVQFR	0.053 ± 1.1
KIEVRLRVTYGYSSLVQAVG	-0.326 ± 1
KIFNSSSFFQL	0.098 ± 0.65
KIFTSCKELTVVGLVASYMN	0.782 ± 0.51
KIHQRRVTSTANRCTILAAN	-0.572 ± 0.76

Substance	amyloid nucleation score
KINVSRFN	-0.146 ± 0.33
KIRSLCPRRKVILSASGQQL	0.971 ± 0.17
KKKYACRPAVRFLSIYCWFA	0.406 ± 0.4
KKQSRIHLSTSKNRFTWNTW	0.007 ± 0.35
KKTSEKLEGYNVNISVLRGY	2.59 ± 0.23
KLAYIAMTVSITGFDPCAWD	2.55 ± 0.068
KLCLGIGCRRQDTQAFGPPL	5.65 ± 0.083
KLGDWARRPCSSGPARTYGR	0.843 ± 0.19
KLKSDLMNRTVGDLPVRARP	5.105 ± 0.048
KLMWERTFVCSRKRFKTYYK	-0.359 ± 0.41
KLQTLLQWFGLY	-0.392 ± 0.41
KLSIWGLRGVVGAWRCHTGY	inactive
KLTLLKTL	inactive
KLVIKLRIIYYASV	3.74 ± 0.084
KLWETRACFVTCR	0.362 ± 0.4
KLYMCVIFYCLKGRLLVTYM	-1.18 ± 0.63
KMDRDS	-0.125 ± 0.38
KMDSRSKTMRWYSCGSD	1.53 ± 0.26
KMLSMDNYD	0.043 ± 1
KMVYGLQGWLGLGSTVFWSP	3.2 ± 0.13
KNLMCQARNYSLIGALWSVS	-0.451 ± 0.76
KNNIWVIYPFVNG	6.434 ± 0.064
KPNPFLVLLLRT	-0.123 ± 0.46
KPRMWIYIFMAWEAYPAYI	inactive
KRARR	0.356 ± 0.4

Substance	amyloid nucleation score
KRDPLFRVLGT	0.071 ± 0.79
KRFIWCFRVTLFT	-0.633 ± 1.1
KRGCNQHFNSMRYLVMFLVS	-0.915 ± 0.62
KRMSPWAVFGC	0.872 ± 0.47
KRNMSCVLYIWDWHPASLLM	inactive
KRVFMWRSG	-0.424 ± 1.1
KRYGAVHDVCMRVSFNASQV	1.2 ± 0.32
KRYWSPVFVQNYIDDFKVSD	0.453 ± 0.34
KSAIVRYQVGRVALEFFAAG	inactive
KSCCDGRNYDKIPRVRSSRT	0.206 ± 0.43
KSCVGYLSAMESSVRL	0.045 ± 0.79
KSDPAVIPY	0.713 ± 0.45
KSFGVDYFFCVKLTSCGIQC	3.25 ± 0.12
KSGMWAFYSEDKRTSGLLRW	0.626 ± 0.65
KSHLVF	-0.312 ± 0.65
KSISVSLLVEGAVVSLSAYI	4.21 ± 0.11
KSMEGSNVMSRRYNWPWKDS	0.062 ± 0.63
KSVRGPCSYIFKYSCY	2.59 ± 0.22
KSYLFESRKIGIVTNMGSYF	-0.594 ± 1.1
KTAFKSNTEITSPLVTVLAL	0.555 ± 0.33
KTCTLIGAMLIA	-0.385 ± 0.56
KTCVPDYNNGWRFDFAYLD	-0.795 ± 0.45
